Results: the nanobody polyreactivity screen of Harvey et al. (2022)

Experiment: yeast display, Sf9 membrane polyspecificity reagent, FACS + sequencing; frameworks hold sequencing errors
Method in brief: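 A synthetic nanobody library was expressed on Saccharomyces cerevisiae BJ5465 by galactose induction for 36–48 hours. The library was stained for 1 hour at 4 °C with 10% biotinylated, detergent-solubilized Sf9 membrane reagent and enriched with streptavidin microbeads before FACS. Low and high (top ~1%) gates were set on anti-HA fluorescence for expression and streptavidin fluorescence for reagent binding, and each polyreactivity label reflects the gate of origin.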

Row | Sequence | polyreactivity (PSR sort gate)
1 | QVQLVESCGGLVQAGGSLRLSCAASGSTFRFNTMGWYRQPPGKERELVAAITRGGSTNYADSVKGRFTISRDNAKNTVYLQMNSLKPEDTAVYFCAAGYCWTFDYDYWGQGTQVTVSS | low polyreactivity
2 | QVQLVESGGGLVQAGGSLRLSCAASGYIFFFYAMGWYRQAPGKERELVASITYRGGSTYYADSVKGRFTISRDNAKNTVYLQMNSLKPEDTAVYYCNVDGGGPLGPQGFPFDYWGQGTQVTVSS | low polyreactivity
3 | QVQLVESGGGLVQAGGSLRLSCAASGITISVNDMGWYRQAPGKERELVAAISSGDSTNYADSVKGRFTISRDNAKNTVYLQMNSLKPEDTAVYYCAALEGSLTGWQTYDYWGQGTQVSVSS | low polyreactivity
4 | QVQLVESGGGLVQAGGSLRLSCAASGRIFVKYAMGWYRQAPGKERELVAAITNSGGRTYYAASVKGRFTISRDNAKNTVYLQMNSLKPEDTAVYYCAALYHASTRQMDYWGQGTQVTVSS | high polyreactivity
5 | QDHHVDSGGGLVQAGGILRLSCAASGSIIDYYPMGWYRQPPGKERELVARIRRRSSSTFYADSVKGRFTISRDNEKNTDYLQMNSLKPEDTAVYYCAADSYAWSTGGIFDYWGQGTQVTVSS | high polyreactivity
6 | QVQLVESGGGLVQAGGSLRLSCAASGYIFGVYTMGWYRQAPGKERELVAGISSGSSTYYADSVKGRFTISRDNAKNTVYLQMNSLKPEDTAVYYCAARERSRTYTSRKQVDYGYGYWGQGTQVTVSS | low polyreactivity
7 | QVQLVESGVGLVQAGGSLRLSCAASGRTFRSYTMGWYRQAPGKERELVAAINRGDRTYADSVKGRFTISRDNAKNTVYLQMNSLKPEDTAVYYCNARYYTHRYDYWGQGTQVTVSS | high polyreactivity
8 | QDQLVESGGGLVQAGGSLRLSCAASGSIFGGYGMGWYRQAHGKERELVAAITSGSSTYYADSVKGRFTISRDNAKNTVYLQMNSLKPEDTAVYYCAARPYPNSAYEGDYWGRGTQVTVSS | low polyreactivity
9 | QVQLVESGGGLVQAGGRLRLSCAASGRIFKSYAMGWYRQAPGKERELVATISISGGSTYYADSVKGRFTISRDNAKNTVYLQMNSLKPEDTAVYYCASDRYGLGDYDYWGQGTQVTVSS | low polyreactivity
10 | QVQHVETGGGLVQAGCSLRLSCAASGRTFLWNAMGWYRQERGNERELGARINLSGGRTYYADSVKGRFTISRDNAKNSVYLQMNSLKPEETAVYYCAAPVVRYRRDSWGQGTQVTVSS | low polyreactivity
11 | QVQLVESGGGLVQAGGSLRLSCAASGYIFTYYAMGWYRQAPGKERELVAAISRGGSTYYADSVKGRFTISRDNAKYTVYLQMNSLKPEDTAVYYCNARPRWPWVVNFGYYYWGQGTQVTVSS | low polyreactivity
12 | QVQLVESGGGLVQAGGSLRLSCAASGSSFEPNAMGWYRQAPGKERELVASITSSGGNTYYADSVKGRFTISRDNAKNTVYLQMNSLKPEDTAVYSCAAGSGYAFGGYYLWGFGYWGQGTQVTVSS | low polyreactivity
13 | QVQLVESGGGLVQAGGSLRLSCAASGRIFRGYAMGWYRQAPGKERELVAAISRGGNTDYADSVKGRFTISRDNAKNTVYLQMNSLKPEDTAVYYCAVGYVSYRKFYLYNSWGQGTQVTVSS | high polyreactivity
14 | QVQLVESGGGLVQAGGSLRLSCAASGSTFRRYAMGWYRQAPGKERELVASITYRGGSTYYADSVKGRFTISRDNAKNTVYLQMNSLKPEDTAVYYCAKKGVYGPLNEYWGQGTQVTVSS | high polyreactivity
15 | QVQLVESGGGLVQAGGSLRLSCAASGRTFYINAMGWYRQAPGKERELVATISRSGGDTYYADSVKGRFTISRDNAKNTVYLQMNSLKPEDTAVYYCNARQYYYRSGAYASRYLYNYWGQGTQVTVSS | high polyreactivity
16 | QVQHVESGGGLVQAGGSLRLSCAASGSIFIANAMGWYRQAPGKERELVAVINWGDGSTYADSVKGRFTISRDNAKNTVYLQMNSLKPEDTAVYYCNAPDEVNDVRYDYWGQGTQVTVSS | low polyreactivity
17 | QVQLVESGGGLVQAGGSLRLSCAASGFILGTYAMGWYRQATGKERELVADISWSVGSTYYADSVKGRFTISRDNAKNTVYLQMISLKPEDTAVYYCNADGYTLWYEYDYWGQGTQVTVSS | low polyreactivity
18 | QVQLVESGGGLVQAGGSLRLSCAASGSIFAYYAMGWYRQAPGKERELVAAISSSGGSTTYADSVKGRFTISRDNAKNTVYLQMNSLKPEDTAVYYCNAAWRRSRYYYWGQGTQVTVSS | high polyreactivity
19 | QVQLVESGGGLDQAGGSLRLSCAASGRTFGTYVMGWSRQAPGKERELVAAITGSGGSTYYADSVKGRFTISRDIAKNSVYLQMNSLKPEDTAVYYCSAKYRRPRYGFWGQGTQVTVSS | high polyreactivity
20 | QVQLVESVGGLVQAGGSLRLSCAASGRIFARYAMGWYRQAPGKERELVAAITKSVGSTYYADSVKGRFTISRDNAKKTVYLQMNSLKPEDTAVYYCARVVADSEYDYWGQGTQVTVSS | high polyreactivity
21 | QVQLVESGGGLVQAGGSLRLSCAASGRTFDWYVMGWYRQAPGKERELVASIRGTGSTYYADSVKGRFTISRDNAKNTVYLQMNSLKPEDTAVYYCAARPGYLYSKYNYWGQGTQVTVSS | high polyreactivity
22 | QVQLVESGGGLVQAGGSLRLSCAASGRIFVYYAMGWYRQAPGKERELVAAIRWTGGSTYYADSVKGRFTISRDNAKNTVYLQMNSLKPEDTAVYYCATVNRYGHFNYWGQGTQVTVSS | high polyreactivity

Row | Sequence | polyreactivity (PSR sort gate)
23 | QVQLVESGGGLVQAGGSLRLSCAASGSIFKTNAMGWYRQAPGKERELVAAITGSGGSTYYADSVKGRFTISRDNAKNTVYLQMNSLKPEDTAVYYCAKRSYRPILRWSYDYWGQGTQVTVSS | low polyreactivity
24 | QVQLVESGGGLVQAGGSLRLSCAASRSIFQSYDMGWYRQAPGKERELVAAISWSGSTTYYADSVKGRFTISRDNAKNTVYLQMNSLKPEDTAVYYCAFDSNTPDWWAVIYGYWGQGTQVTVSS | low polyreactivity
25 | QVQLVESGGGLVQAGGSLRLSCAASGSILFTNAMGWYRQAPGKERELVAAISSGGSTYYADSVKGRFTISRDNAKNTVYLQMNSLKPEDTAVYYCAADQLNVGREYVEYDYWGQGTQVTVSS | low polyreactivity
26 | QVQLVESGGGIVQAGGSLRLSCAASGRIFRRYAMVWSRQAPGKQRELVAAISSGGGSTYYADSVKGRFTISRDNAKNTVYLQMNSLKPEDTAVFYCDAASSPRYDYWGQGTQVTVSS | high polyreactivity
27 | QVQLVESGGGLVQAGGSLRLSCAASGFIFPSNAMGWYRQAPGKERELVAAISSRGTRTYYADSVKGRFTISRDNAKNTVYLQMNSLKPEDTAVYYCAKYGYWGQGTQVTVSS | high polyreactivity
28 | QVQLVESGGGLVQAGGSLRLSCAASGRTFWNYAMGWYIQAPGKEREFVAVIRFSDGSTYYADSVKGRFTISRDNAKNTVYLQMNSLKPEDTAVYYCAAKGPRRWGSGFDYWGQGTQLTVSS | low polyreactivity
29 | QVQLVESGRGLVQAGGSLRLSCAASGRIFRWYDMGWYRKAPGKERELVAAISSRGGSTYYADSVKGRFTISRDNAKNTVYLQMNSLKPEDTAVYYCAADTSGWQPRYDYWGQGTQVTVSS | high polyreactivity
30 | QVQLVESAGGLVQAGGSLRLSCYASGSIFTRNAMGWYRQAPGKERELVASISYSGGNTYYADSVKGRFTISRDNAKNTVYLQMNSLKPEDTAVYYCAALYSVYRDGYYWGQGTQVTVSS | high polyreactivity
31 | QVQLVESGVGLVQAGGSLRLSCAASGLILYTYAMGWYRQAPGKESELVAAINSGGRTNYADSVKGRFTISRDNAKNSVYLQMNSLKPEDTAVYYCAADYGSRVRGFNYWGQGTQVTVSS | low polyreactivity
32 | QVQLVESGGGLVQAGGSLRLSCAASGSTFTYYAMGWYRKAPGKETELVAAIDFSGTSTYYADSVKGRFTISRDNAQNTVYLKMNSLKPEDTSVYYCAASQSWYWGGAHDNGEFGYWGQGTQVTVSS | low polyreactivity
33 | QVQLVESGGGLVQAGGSLRLSCAASGRTFLSNAMGWYRQAPGKERELVAAISNGDNTYYADSVKGRFTISRDNAKNTVVLQMNSLKPEDTAVYYCAADQYWSWIYYPVVEYDYWGEGTQVTVSS | low polyreactivity
34 | QDQLVESGGGLVQAGGSLRLSSAASGFTFAHYARGWYRQAPGKERELVAAISGSGSSTYYADSVKGRFTISRDNAKNTVYLQMNSLKPEDTAVYYCNVRWYFLYDYWGQGTQVTVSS | low polyreactivity
35 | QVQLVESGGGLVQAGGILRLSCAASGRTFNGNAMGWYRQAPGKERELVAAISGGSTSYADSVKGRFTISRDNAKNTVYLQMNSLKPEDTAVYYCATDPSEEYDYWGQGNQVTVSS | low polyreactivity
36 | QVQLVESGGGLVQAGGILRLSCADSGRTFGSNAMGWYRQAPGKERELVAAISGRTDSTYYADSVKGRFTISRDNAKNTVYLQMNSLKPEDTAVYYCAADSADVLYYYIRYNYWGQGTQVTVSS | low polyreactivity
37 | QVQLVESAGGLVQAGGSLRLSCAASGSTFSRYAMGWSRQAPGNERELVAAISSGGNTYDADSVKGRFTISRDNAKNTVYLQMNSLKPEDTPVYYCIADRYTWYPWTKCFYYWGQGTHVTVSS | high polyreactivity
38 | QVQLVESGGGIVQAGGSLRLSCAASGRIFVDYDMGWYRQATGKERELVATISSGGSTNYADSVKGRFTISRDNAKNTVYLQMNSLKPEDSAVYHCNKDYHVRYYYWGQGTQVTVSS | low polyreactivity
39 | QVQLVESGGGLVQAGGSLRLSCAASGSTFPGYAMGWYRQAPGKERELVAAITTSGGSTYYADSVKGRFTISRDNAKNTVYLQMNSLKPEDTAVYYCAADYWYYLDAGYYWGQGTQVTVSS | low polyreactivity
40 | QVQLVESGGGLVQAGGSLRLSCAASGLIFRGYAMGWYRQAPGKERELVAAISTTGGSTFYADSVKGRFTISRDNAKNTVYLQMNSLKREDTAVYYCNADWAPTGFSGGYPYDYWGQGTQVTVSS | high polyreactivity
41 | QVQLVESGGGLVQAGGSLRLSCAASGFIFFKYAMRWYRQAPGKEREFVAAISKSGTSTYYADSVKGRFTISRDNAKNTVYLQMNSLKPEDTAVYYCAARKDSYYYRSYDSWGQGTQVTVSS | high polyreactivity
42 | QVQLVESGGGLVQAGGSLRLSCAASGITFGFNAMGWYRQAPGKERELVAAITWSVGRTYYADSVKGRFTISRDTAKNTVYLQMNSLKPEDTAVYYCAKDFEAGDDYFAYDYWGQGTQVTVSS | low polyreactivity
43 | QVQLVESGGGLVQAGGSLRLRCAASGSIFFYYVMGLSRQAPGKERELVAVISSGGGSTYYADSVKGRFTISRDNAKYTVYLQMNSLKPEDTAVYYCAAGTYYKFYYWGQGTQVTESS | high polyreactivity
